Assay results from publication PMC10528708.

Biological target: T1, CHF-1Flu (tomato aspermy virus)
T1 chain: RKRHKLNR
Experiment: fluorescence polarization

CTGCTGCTGCTGCTGCTGCTGCTGCTGCTG (structured_DNA) [d(CTG)10]
Kd: 440 ± 79 nM
